# Residue numbers refer to the chain shown, from its start.
# T1: Recombinant Human IL-17 (human, UniProt Q16552 20-155, limits assumed)
# T1 sequence (looked up): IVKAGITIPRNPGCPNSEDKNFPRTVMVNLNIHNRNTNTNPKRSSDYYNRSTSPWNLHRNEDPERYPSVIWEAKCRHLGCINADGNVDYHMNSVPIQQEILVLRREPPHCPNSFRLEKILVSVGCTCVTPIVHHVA
# B1: DVD1283 (bispecific antibody, human IgG1, kappa)
# heavy: not shown
# light: EIVLTQSPDFQSVTPKEKVTITCRASQNIGSELHWYQQKPDQSPKLLIKYASHSISGVPSRFSGSGSGTDFTLTINGLEAEDAATYYCHQSDTLPHTFGQGTKVDIKRTVAAPDIQMTQSPSSLSASVGDRVTITCRASGNIHNYLTWYQQTPGKAPKLLIYNAKTLADGVPSRFSGSGSGTDYTFTISSLQPEDIATYYCQHFWSIPYTFGQGTKLQITRTVAAPSVFIFPPSDEQLKSGTASVVCLLNNFYPREAKVQWKVDNALQSGNSQESVTEQDSKDSTYSLSSTLTLSKADYEKHKVYACEVTHQGLSSPVTKSFNRGEC
# B2: DVD1285 (bispecific antibody, human IgG1, kappa)
# heavy: not shown
# light: B1 light
# B3: DVD1282 (bispecific antibody, human IgG1, kappa)
# heavy: not shown
# light: DIQMTQSPSSLSASVGDRVTITCRASGNIHNYLTWYQQTPGKAPKLLIYNAKTLADGVPSRFSGSGSGTDYTFTISSLQPEDIATYYCQHFWSIPYTFGQGTKLQITRTVAAPEIVLTQSPDFQSVTPKEKVTITCRASQNIGSELHWYQQKPDQSPKLLIKYASHSISGVPSRFSGSGSGTDFTLTINGLEAEDAATYYCHQSDTLPHTFGQGTKVDIKRTVAAPSVFIFPPSDEQLKSGTASVVCLLNNFYPREAKVQWKVDNALQSGNSQESVTEQDSKDSTYSLSSTLTLSKADYEKHKVYACEVTHQGLSSPVTKSFNRGEC
# B4: DVD1284 (bispecific antibody, human IgG1, kappa)
# heavy: not shown
# light: B3 light
# B5: DVD1281 (bispecific antibody, human IgG1, kappa)
# heavy: not shown
# light: EIVLTQSPDFQSVTPKEKVTITCRASQDIGSELHWYQQKPDQPPKLLIKYASHSTSGVPSRFSGSGSGTDFTLTINGLEAEDAGTYYCHQTDSLPYTFGPGTKVDIKRTVAAPETTVTQSPSSLSASVGDRVTITCITSTDIDVDMNWYQQKPGKPPKLLISQGNTLRPGVPSRFSSSGSGTDFTFTISSLQPEDFATYYCLQSDNLPLTFGQGTKLEIKRTVAAPSVFIFPPSDEQLKSGTASVVCLLNNFYPREAKVQWKVDNALQSGNSQESVTEQDSKDSTYSLSSTLTLSKADYEKHKVYACEVTHQGLSSPVTKSFNRGEC
# B6: DVD1287 (bispecific antibody, human IgG1, kappa)
# heavy: not shown
# light: B5 light with D28N, P43S, T55I, G84A, T91S, S93T, Y96H, P100Q, E114D, T116Q
# B7: DVD1288 (bispecific antibody, human IgG1, kappa)
# heavy: not shown
# light: DTVVTQSPAFLSVTPGEKVTITCITSTDIDVDMNWYQQKPDQPPKLLISQGNTLRPGVPSRFSSSGSGTDFTFTISSLEAEDAATYYCLQSDNLPLTFGQGTKLEIKRTVAAPEIVLTQSPDFQSVTPKEKVTITCRASQNIGSELHWYQQKPDQSPKLLIKYASHSISGVPSRFSGSGSGTDFTLTINGLEAEDAATYYCHQSDTLPHTFGQGTKVDIKRTVAAPSVFIFPPSDEQLKSGTASVVCLLNNFYPREAKVQWKVDNALQSGNSQESVTEQDSKDSTYSLSSTLTLSKADYEKHKVYACEVTHQGLSSPVTKSFNRGEC
# B8: DVD1279 (bispecific antibody, human IgG1, kappa)
# heavy: not shown
# light: EIVLTQSPDFQSVTPKEKVTITCRASQDIGSELHWYQQKPDQPPKLLIKYASHSTSGVPSRFSGSGSGTDFTLTINGLEAEDAGTYYCHQTDSLPYTFGPGTKVDIKRTVAAPDTVVTQSPAFLSVTPGEKVTITCITSTDIDVDMNWYQQKPDQPPKLLISQGNTLRPGVPSRFSSSGSGTDFTFTISSLEAEDAATYYCLQSDNLPLTFGQGTKLEIKRTVAAPSVFIFPPSDEQLKSGTASVVCLLNNFYPREAKVQWKVDNALQSGNSQESVTEQDSKDSTYSLSSTLTLSKADYEKHKVYACEVTHQGLSSPVTKSFNRGEC
# B9: DVD1289 (bispecific antibody, human IgG1, kappa)
# heavy: not shown
# light: B8 light with D28N, P43S, T55I, G84A, T91S, S93T, Y96H, P100Q
# B10: DVD1280 (bispecific antibody, human IgG1, kappa)
# heavy: not shown
# light: ETTVTQSPSSLSASVGDRVTITCITSTDIDVDMNWYQQKPGKPPKLLISQGNTLRPGVPSRFSSSGSGTDFTFTISSLQPEDFATYYCLQSDNLPLTFGQGTKLEIKRTVAAPEIVLTQSPDFQSVTPKEKVTITCRASQDIGSELHWYQQKPDQPPKLLIKYASHSTSGVPSRFSGSGSGTDFTLTINGLEAEDAGTYYCHQTDSLPYTFGPGTKVDIKRTVAAPSVFIFPPSDEQLKSGTASVVCLLNNFYPREAKVQWKVDNALQSGNSQESVTEQDSKDSTYSLSSTLTLSKADYEKHKVYACEVTHQGLSSPVTKSFNRGEC
# B11: DVD1286 (bispecific antibody, human IgG1, kappa)
# heavy: not shown
# light: B10 light with E1D, T3Q, D141N, P156S, T168I, G197A, T204S, S206T, Y209H, P213Q
# Tests used:
# Recombinant Human IL-1β = Recombinant Human IL-1β (human, UniProt P01584 117-269); test: cell-based or functional assay
# Recombinant Human IL-17 = target: T1, Recombinant Human IL-17; test: cell-based or functional assay
C-Terminal VD IL-1β Neutralization Assay EC50 (Recombinant Human IL-1β),N-terminal VD IL-17 Neutralization Assay EC50 (Recombinant Human IL-17),N-Terminal VD IL-1β Neutralization Assay EC50 (Recombinant Human IL-1β),C-terminal VD IL-17 Neutralization Assay EC50 (Recombinant Human IL-17),Binder
7.61 nM,0.0238 nM,–,–,B1
1.27 nM,0.0021 nM,–,–,B2
–,–,0.0091 nM,> 20 nM,B3
–,–,0.0065 nM,> 20 nM,B4
> 150 nM,0.0027 nM,–,–,B5
> 50 nM,0.0035 nM,–,–,B6
–,–,0.212 nM,0.111 nM,B7
> 200 nM,0.0052 nM,–,–,B8
18.8 nM,0.096 nM,–,–,B9
–,–,0.149 nM,0.256 nM,B10
–,–,0.165 nM,0.259 nM,B11

# Source: patent US20120034160A1 (AbbVie / Abbott, published 2012)
